Test results published in patent US20230212306A1 (Daiichi Sankyo, published 2023).

Tests used:
[1] = target: T1, human TLR7 (variant 2)-Flag, expressed in HEK293 cells (human, UniProt Q9NYK1 27-1049); test: flow cytometry on fixed and permeabilised HEK293 cells expressing human TLR7 (variant 2)-Flag
T1 construct: Transient expression from pcDNA3.1 in Lenti-X HEK293T cells; cells fixed and permeabilised before staining; not shown: Flag tag
T1 sequence: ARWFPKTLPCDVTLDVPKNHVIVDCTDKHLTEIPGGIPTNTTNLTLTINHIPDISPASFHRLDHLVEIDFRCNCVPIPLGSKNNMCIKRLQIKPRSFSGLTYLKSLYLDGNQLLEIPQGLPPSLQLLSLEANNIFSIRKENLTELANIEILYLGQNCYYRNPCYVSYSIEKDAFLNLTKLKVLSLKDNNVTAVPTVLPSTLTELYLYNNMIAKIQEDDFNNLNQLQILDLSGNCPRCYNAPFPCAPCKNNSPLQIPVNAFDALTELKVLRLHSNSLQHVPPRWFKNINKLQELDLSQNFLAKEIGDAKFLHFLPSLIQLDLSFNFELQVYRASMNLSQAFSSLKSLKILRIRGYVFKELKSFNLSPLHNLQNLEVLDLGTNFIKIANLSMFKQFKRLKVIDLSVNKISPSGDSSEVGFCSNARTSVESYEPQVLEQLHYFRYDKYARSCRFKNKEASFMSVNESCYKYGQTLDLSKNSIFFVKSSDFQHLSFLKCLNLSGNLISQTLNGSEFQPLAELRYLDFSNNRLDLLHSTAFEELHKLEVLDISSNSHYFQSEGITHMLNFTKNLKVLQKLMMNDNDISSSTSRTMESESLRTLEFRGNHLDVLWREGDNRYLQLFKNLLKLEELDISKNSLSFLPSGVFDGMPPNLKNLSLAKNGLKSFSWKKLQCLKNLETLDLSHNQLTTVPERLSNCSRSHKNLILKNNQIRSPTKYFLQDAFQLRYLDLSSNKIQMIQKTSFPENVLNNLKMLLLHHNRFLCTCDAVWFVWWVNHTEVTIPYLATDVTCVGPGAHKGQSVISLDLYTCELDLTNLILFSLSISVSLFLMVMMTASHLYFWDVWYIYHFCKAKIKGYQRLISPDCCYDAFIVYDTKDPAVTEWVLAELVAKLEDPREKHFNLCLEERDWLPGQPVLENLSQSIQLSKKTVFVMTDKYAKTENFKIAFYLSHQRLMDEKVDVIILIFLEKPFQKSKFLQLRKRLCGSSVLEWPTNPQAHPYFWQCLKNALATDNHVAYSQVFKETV
From the text: (§1) The HEK293 cells expressing human TLR7 (variant 1)-Flag prepared in 8)-1, the HEK293 cells expressing human TLR7 (variant 2)-Flag prepared in 8)-2, the HEK293 cells expressing monkey TLR7-Flag prepared in 8)-3, the HEK293 cells expressing mouse TLR7-Flag prepared in 8)-4, and the HEK293 cells expressing rat TLR7-Flag prepared in 8)-5 were immobilized/subjected to membrane permeation with a Fixation and Permeabilization Solution (Becton, Dickinson and Company) and thereafter stained using huAT01_H3L2_IgG1LALA, which is one of the humanized anti-human TLR7 antibodies, and ALEXA FLUOR® 647 AffiniPure Goat anti-human IgG+IgM (H+L) (Jackson ImmunoResearch Inc.), which is the secondary antibody.
(§2) The binding of the humanized anti-human TLR7 antibody to human TLR7 was detected based on flow cytometry (Miltenyi Biotec K.K.), and the data was analyzed using software (Flowjo) which analyzes the data of flow cytometry.

[2] = target: T2, human TLR7 (variant 1)-Flag, expressed in HEK293 cells (human, UniProt Q9NYK1 27-1049); test: flow cytometry on fixed and permeabilised HEK293 cells expressing human TLR7 (variant 1)-Flag
T2 construct: Transient expression from pcDNA3.1 in Lenti-X HEK293T cells; cells fixed and permeabilised before staining; not shown: Flag tag
T2 sequence: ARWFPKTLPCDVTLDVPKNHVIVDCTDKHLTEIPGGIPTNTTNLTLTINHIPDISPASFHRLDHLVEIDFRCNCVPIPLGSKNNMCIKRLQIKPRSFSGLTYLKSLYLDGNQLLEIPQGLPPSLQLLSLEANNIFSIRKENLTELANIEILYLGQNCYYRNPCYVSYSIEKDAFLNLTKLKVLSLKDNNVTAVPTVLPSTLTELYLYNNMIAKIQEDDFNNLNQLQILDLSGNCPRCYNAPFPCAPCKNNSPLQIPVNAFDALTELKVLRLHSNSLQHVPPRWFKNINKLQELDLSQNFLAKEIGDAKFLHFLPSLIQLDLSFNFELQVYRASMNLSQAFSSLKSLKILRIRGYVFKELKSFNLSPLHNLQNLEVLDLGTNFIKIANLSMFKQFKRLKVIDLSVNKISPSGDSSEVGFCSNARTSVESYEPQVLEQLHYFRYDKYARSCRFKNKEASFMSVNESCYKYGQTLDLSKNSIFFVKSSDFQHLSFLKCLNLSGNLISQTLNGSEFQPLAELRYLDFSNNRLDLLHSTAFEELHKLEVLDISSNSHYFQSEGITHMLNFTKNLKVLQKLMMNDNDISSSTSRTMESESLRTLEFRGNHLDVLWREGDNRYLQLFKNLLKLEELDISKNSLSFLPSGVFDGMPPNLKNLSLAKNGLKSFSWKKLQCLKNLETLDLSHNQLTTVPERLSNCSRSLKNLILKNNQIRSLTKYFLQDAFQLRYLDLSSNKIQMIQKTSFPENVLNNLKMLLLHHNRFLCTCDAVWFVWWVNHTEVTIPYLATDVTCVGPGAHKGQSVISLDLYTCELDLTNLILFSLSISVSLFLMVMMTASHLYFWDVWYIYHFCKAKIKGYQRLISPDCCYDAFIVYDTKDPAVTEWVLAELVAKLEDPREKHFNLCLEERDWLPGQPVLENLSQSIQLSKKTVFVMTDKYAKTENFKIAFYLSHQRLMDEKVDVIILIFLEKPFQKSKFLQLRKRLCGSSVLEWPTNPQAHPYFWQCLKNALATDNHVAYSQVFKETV
From the text: as §1, §2

binding result [1]: binds
binding result [2]: binds
B1: huAT01_H3L2_IgG1LALA antibody (antibody, V domains shown)
VH: QVQLVQSGAEVKKPGASVKVSCKASGYTFTNNWLHWVRQAPGQGLEWMGDIYPSNGRTNYAQKFQGRVTLTVDKSTSTAYMELSSLRSEDTAVYFCARERGYFDYWGQGTLVTVSS
VL: DIQMTQSPSSLSASVGDRVTITCKASQDINKYIAWYQQKPGKAPKLLIHYTSTLQPGIPSRFSGSGSGRDYTLTISSLQPEDFATYYCLQYDYLLTFGQGTKVEIKR
notes: Humanized AT01; heavy huAT01_H3_IgG1LALA, light huAT01_L2
